{"source": "paper PMC6194269", "about": "“Structural and functional characterization of hMEX‐3C Ring finger domain as an E3 ubiquitin ligase” (Protein Science : A Publication of the Protein Society, 2018)", "proteins": {"B1": {"name": "Ring finger domain of hMEX-3C (domain or fragment, human, UniProt Q5U5Q3 603-659, looked up)", "chain": "RRKHDCVICFENEVIAALVPCGHNLFCMECANKICEKRTPSCPVCQTAVTQAIQIHS", "notes": "two zinc ions per monomer; also called hMEX-3C Ring finger domain; hMEX-3C Ring homodimer; source: E. coli BL21 (DE3), purified (GST column, Superdex 75); GST fusion digested by TEV protease"}}, "biological_target": "the molecule itself", "assay": "SEC; GST fusion digested by TEV protease and loaded on an S75 column; molecular weight calculated from elution volume"}
{"protein": "B1", "values": [{"measurement": "stoichiometry N", "value": 2}]}
